From PMC6170424
Blank lines part the entries; values can stand above or below the substance they belong to.

What was measured:
[1] = target: Ef-SOD1a^Δ (Euplotes focardii Cu,Zn superoxide dismutase 1a without its signal peptide) (Euplotes focardii); test: SEC; comparison of the SEC chromatographic profiles of Ef-SOD1a and Ef-SOD1b; data not shown
[2] = target: Ef-SOD1b (Euplotes focardii Cu,Zn superoxide dismutase 1b) (Euplotes focardii); test: SEC-MALS; 200 µl of protein (1 mg/ml) on Superose12 10/300 GL; 50 mM sodium phosphate buffer, NaCl 150 mM, pH 7.5
[3] = target: Ef-SOD2^Δ (Euplotes focardii Mn superoxide dismutase without its mitochondrial signal peptide) (Euplotes focardii); test: as above

stoichiometry N [1]: 2
Substance: Ef-SOD1a^Δ (Euplotes focardii Cu,Zn superoxide dismutase 1a without its signal peptide) (enzyme)

stoichiometry N [2]: 2
Substance: Ef-SOD1b (Euplotes focardii Cu,Zn superoxide dismutase 1b) (enzyme)

stoichiometry N [3]: 4
Substance: Ef-SOD2^Δ (Euplotes focardii Mn superoxide dismutase without its mitochondrial signal peptide) (enzyme)
